T1: FcγRIIb extracellular domain with C-terminal His tag (human, UniProt P31994 43-217)
T1 construct: extracellular domain; For crystals it was expressed with kifunensine and trimmed with Endo F1; also called FcgRIIb; FcγRIIb extracellular region
T1 sequence (looked up): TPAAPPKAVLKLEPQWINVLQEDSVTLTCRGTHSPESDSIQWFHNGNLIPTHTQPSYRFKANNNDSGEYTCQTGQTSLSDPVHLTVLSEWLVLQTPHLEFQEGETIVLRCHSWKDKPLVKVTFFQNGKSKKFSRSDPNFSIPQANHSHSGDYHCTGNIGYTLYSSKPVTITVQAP

B1: IL6R-AP002/IL6R-BP256/IL6R-L (antibody, human IgG1, kappa)
heavy 1: QVQLQESGPGLVKPSETLSLTCAVSGHSISHDHAWSWVRQPPGEGLEWIGFISYSGITNYNPSLQGRVTISRDNSKNTLYLQMNSLRAEDTAVYYCARSLARTTAMDYWGEGTLVTVSSASTKGPSVFPLAPSSKSTSGGTAALGCLVKDYFPEPVTVSWNSGALTSGVHTFPAVLQSSGLYSLSSVVTVPSSSLGTQTYICNVNHKPSNTKVDKKVEPKSCDKTHTCPPCPAPDLLGDDSVFLFPPKPKDTLMISRTPEVTCVVVDVSDEDGEVKFNWYVDGVEVHNAKTKPREEQYNSTYRVVSVLTVLHQDWLNGKEYKCKVSNKALPRPIEKTISKAKGQPREPQVYTLPPSRKELTKNQVSLTCLVKGFYPSDIAVEWESNGQPENNYKTTPPVLDSDGSFFLYSKLTVDKSRWQQGNVFSCSVMHEALHNRYTQKSLSLSP
heavy 2: QVQLQESGPGLVKPSETLSLTCAVSGHSISHDHAWSWVRQPPGEGLEWIGFISYSGITNYNPSLQGRVTISRDNSKNTLYLQMNSLRAEDTAVYYCARSLARTTAMDYWGEGTLVTVSSASTKGPSVFPLAPSSKSTSGGTAALGCLVKDYFPEPVTVSWNSGALTSGVHTFPAVLQSSGLYSLSSVVTVPSSSLGTQTYICNVNHKPSNTKVDKKVEPKSCDKTHTCPPCPAPDLLGDDDVFLFPPKPKDTLMISRTPEVTCVVVDVSDEDGEVKFNWYVDGVEVHNAKTKPREEQYNSTYRVVSVLTVLHQDWLNGKEYKCKVSNKALPRPIEKTISKAKGQPREPQVYTLPPSRDELTKNQVSLTCLVKGFYPSDIAVEWESNGQPENNYKTTPPVLDSDGSFFLYSKLTVDKSRWQQGNVFSCSVMHEALHNHYTQESLSLSP
light: not shown
notes: Heterodimer: S239D in one chain only
B2: IL6R-AP002/IL6R-BP257/IL6R-L (antibody, human IgG1, kappa)
heavy 1: QVQLQESGPGLVKPSETLSLTCAVSGHSISHDHAWSWVRQPPGEGLEWIGFISYSGITNYNPSLQGRVTISRDNSKNTLYLQMNSLRAEDTAVYYCARSLARTTAMDYWGEGTLVTVSSASTKGPSVFPLAPSSKSTSGGTAALGCLVKDYFPEPVTVSWNSGALTSGVHTFPAVLQSSGLYSLSSVVTVPSSSLGTQTYICNVNHKPSNTKVDKKVEPKSCDKTHTCPPCPAPDLLGDDSVFLFPPKPKDTLMISRTPEVTCVVVDVSDEDGEVKFNWYVDGVEVHNAKTKPREEQYNSTYRVVSVLTVLHQDWLNGKEYKCKVSNKALPRPIEKTISKAKGQPREPQVYTLPPSRKELTKNQVSLTCLVKGFYPSDIAVEWESNGQPENNYKTTPPVLDSDGSFFLYSKLTVDKSRWQQGNVFSCSVMHEALHNRYTQKSLSLSP
heavy 2: QVQLQESGPGLVKPSETLSLTCAVSGHSISHDHAWSWVRQPPGEGLEWIGFISYSGITNYNPSLQGRVTISRDNSKNTLYLQMNSLRAEDTAVYYCARSLARTTAMDYWGEGTLVTVSSASTKGPSVFPLAPSSKSTSGGTAALGCLVKDYFPEPVTVSWNSGALTSGVHTFPAVLQSSGLYSLSSVVTVPSSSLGTQTYICNVNHKPSNTKVDKKVEPKSCDKTHTCPPCPAPDLLGDDEVFLFPPKPKDTLMISRTPEVTCVVVDVSDEDGEVKFNWYVDGVEVHNAKTKPREEQYNSTYRVVSVLTVLHQDWLNGKEYKCKVSNKALPRPIEKTISKAKGQPREPQVYTLPPSRDELTKNQVSLTCLVKGFYPSDIAVEWESNGQPENNYKTTPPVLDSDGSFFLYSKLTVDKSRWQQGNVFSCSVMHEALHNHYTQESLSLSP
light: not shown
notes: Heterodimer: S239E in one chain only
B3: IL6R-AP009/IL6R-BP259/IL6R-L (antibody, human IgG1, kappa)
heavy 1: QVQLQESGPGLVKPSETLSLTCAVSGHSISHDHAWSWVRQPPGEGLEWIGFISYSGITNYNPSLQGRVTISRDNSKNTLYLQMNSLRAEDTAVYYCARSLARTTAMDYWGEGTLVTVSSASTKGPSVFPLAPSSKSTSGGTAALGCLVKDYFPEPVTVSWNSGALTSGVHTFPAVLQSSGLYSLSSVVTVPSSSLGTQTYICNVNHKPSNTKVDKKVEPKSCDKTHTCPPCPAPDLLGDDSVFLFPPKPKDTLMISRTPEVTCVVVDVSDEDGEVKFNWYVDGVEVHNAKTKPREEQDNSTYRVVSVLTVLHQDWLNGKEYKCKVSNKALPRPIEKTISKAKGQPREPQVYTLPPSRKELTKNQVSLTCLVKGFYPSDIAVEWESNGQPENNYKTTPPVLDSDGSFFLYSKLTVDKSRWQQGNVFSCSVMHEALHNRYTQKSLSLSP
heavy 2: QVQLQESGPGLVKPSETLSLTCAVSGHSISHDHAWSWVRQPPGEGLEWIGFISYSGITNYNPSLQGRVTISRDNSKNTLYLQMNSLRAEDTAVYYCARSLARTTAMDYWGEGTLVTVSSASTKGPSVFPLAPSSKSTSGGTAALGCLVKDYFPEPVTVSWNSGALTSGVHTFPAVLQSSGLYSLSSVVTVPSSSLGTQTYICNVNHKPSNTKVDKKVEPKSCDKTHTCPPCPAPDLLGDDDVFLFPPKPKDTLMISRTPEVTCVVVDVSDEDGEVKFNWYVDGVEVHNAKTKPREEQDNSTYRVVSVLTVLHQDWLNGKEYKCKVSNKALPRPIEKTISKAKGQPREPQVYTLPPSRDELTKNQVSLTCLVKGFYPSDIAVEWESNGQPENNYKTTPPVLDSDGSFFLYSKLTVDKSRWQQGNVFSCSVMHEALHNHYTQESLSLSP
light: not shown
notes: as for B1
B4: IL6R-AP009/IL6R-BP260/IL6R-L (antibody, human IgG1, kappa)
heavy 1: QVQLQESGPGLVKPSETLSLTCAVSGHSISHDHAWSWVRQPPGEGLEWIGFISYSGITNYNPSLQGRVTISRDNSKNTLYLQMNSLRAEDTAVYYCARSLARTTAMDYWGEGTLVTVSSASTKGPSVFPLAPSSKSTSGGTAALGCLVKDYFPEPVTVSWNSGALTSGVHTFPAVLQSSGLYSLSSVVTVPSSSLGTQTYICNVNHKPSNTKVDKKVEPKSCDKTHTCPPCPAPDLLGDDSVFLFPPKPKDTLMISRTPEVTCVVVDVSDEDGEVKFNWYVDGVEVHNAKTKPREEQDNSTYRVVSVLTVLHQDWLNGKEYKCKVSNKALPRPIEKTISKAKGQPREPQVYTLPPSRKELTKNQVSLTCLVKGFYPSDIAVEWESNGQPENNYKTTPPVLDSDGSFFLYSKLTVDKSRWQQGNVFSCSVMHEALHNRYTQKSLSLSP
heavy 2: QVQLQESGPGLVKPSETLSLTCAVSGHSISHDHAWSWVRQPPGEGLEWIGFISYSGITNYNPSLQGRVTISRDNSKNTLYLQMNSLRAEDTAVYYCARSLARTTAMDYWGEGTLVTVSSASTKGPSVFPLAPSSKSTSGGTAALGCLVKDYFPEPVTVSWNSGALTSGVHTFPAVLQSSGLYSLSSVVTVPSSSLGTQTYICNVNHKPSNTKVDKKVEPKSCDKTHTCPPCPAPDLLGDDEVFLFPPKPKDTLMISRTPEVTCVVVDVSDEDGEVKFNWYVDGVEVHNAKTKPREEQDNSTYRVVSVLTVLHQDWLNGKEYKCKVSNKALPRPIEKTISKAKGQPREPQVYTLPPSRDELTKNQVSLTCLVKGFYPSDIAVEWESNGQPENNYKTTPPVLDSDGSFFLYSKLTVDKSRWQQGNVFSCSVMHEALHNHYTQESLSLSP
light: not shown
notes: as for B2

What follows are binders tested against T1, FcγRIIb extracellular domain with … (assay: SPR (Biacore)).
B1: binds.
B2: binds.
B3: binds.
B4: binds.
